# In publication PMC9482650, “Quantitative fragmentomics allow affinity mapping of interactomes” (Nature Communications, 2022):
# Biological target: T1, GRIP1_5, Q9Y3R0
# T1 sequence (Q9Y3R0 568-668, limits assumed, looked up): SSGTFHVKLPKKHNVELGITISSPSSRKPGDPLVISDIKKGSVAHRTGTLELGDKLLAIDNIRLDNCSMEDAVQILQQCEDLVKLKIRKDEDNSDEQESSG
# Test: holdup assay
# Parameters: key: below the threshold = too weak to quantify, mostly under pKd 3.1 to 4
# Settings: plain residues with an end cap or a label only (N-terminal biotin on a linker: ado-ado)
row,Binder,pKd
1,"GCQGETEDVL [PTH2R, P49190]",below the threshold
2,"ANGLMQTSKL [SSTR5, P35346]",below the threshold

# Biological target: Inadl_9, Q8NI35
# Sequence (Q8NI35 1530-1615): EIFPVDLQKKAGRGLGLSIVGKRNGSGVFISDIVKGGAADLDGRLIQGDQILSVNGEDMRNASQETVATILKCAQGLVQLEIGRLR
# Test: holdup assay
# Parameters: key: below the threshold = too weak to quantify, mostly under pKd 3.1 to 4
# Settings: plain residues with an end cap or a label only (N-terminal biotin on a linker: ado-ado)
row,Binder,pKd
1,"GCQGETEDVL [PTH2R, P49190]",below the threshold
2,"ANGLMQTSKL [SSTR5, P35346]",below the threshold

# Biological target: T2, APBA2_1, Q99767
# T2 sequence (Q99767 563-664, limits assumed, looked up): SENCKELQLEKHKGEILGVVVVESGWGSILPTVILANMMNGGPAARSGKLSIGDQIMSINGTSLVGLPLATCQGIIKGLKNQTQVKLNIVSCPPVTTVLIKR
# Test: holdup assay
# Parameters: key: below the threshold = too weak to quantify, mostly under pKd 3.1 to 4
# Settings: plain residues with an end cap or a label only (N-terminal biotin on a linker: ado-ado)
row,Binder,pKd
1,"GCQGETEDVL [PTH2R, P49190]",below the threshold
2,"ANGLMQTSKL [SSTR5, P35346]",below the threshold

# Biological target: T3, NHERF3_1, Q5T2W1
# T3 sequence (Q5T2W1 4-100, limits assumed, looked up): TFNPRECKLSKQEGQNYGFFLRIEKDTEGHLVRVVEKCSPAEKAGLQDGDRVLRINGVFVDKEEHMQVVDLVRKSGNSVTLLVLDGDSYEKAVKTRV
# Test: holdup assay
# Parameters: key: below the threshold = too weak to quantify, mostly under pKd 3.1 to 4
# Settings: plain residues with an end cap or a label only (N-terminal biotin on a linker: ado-ado)
row,Binder,pKd
1,"GCQGETEDVL [PTH2R, P49190]",3.98
2,"ANGLMQTSKL [SSTR5, P35346]",5.15

# Biological target: DLG1_3, Q12959
# Sequence (Q12959 457-571): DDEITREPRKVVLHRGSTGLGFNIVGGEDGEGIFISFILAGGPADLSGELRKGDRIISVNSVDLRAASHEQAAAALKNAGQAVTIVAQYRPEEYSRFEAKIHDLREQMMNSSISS
# Test: holdup assay
# Parameters: key: below the threshold = too weak to quantify, mostly under pKd 3.1 to 4
# Settings: plain residues with an end cap or a label only (N-terminal biotin on a linker: ado-ado)
row,Binder,pKd
1,"GCQGETEDVL [PTH2R, P49190]",below the threshold
2,"ANGLMQTSKL [SSTR5, P35346]",below the threshold

# Biological target: GORASP1, Q9BQQ3
# Sequence (Q9BQQ3 1-208): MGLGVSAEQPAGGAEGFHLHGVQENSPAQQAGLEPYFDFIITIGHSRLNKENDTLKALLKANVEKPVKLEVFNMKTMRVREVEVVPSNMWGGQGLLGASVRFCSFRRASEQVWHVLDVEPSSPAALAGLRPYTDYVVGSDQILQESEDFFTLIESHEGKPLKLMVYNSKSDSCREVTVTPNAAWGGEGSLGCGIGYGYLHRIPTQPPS
# Test: holdup assay
# Parameters: key: below the threshold = too weak to quantify, mostly under pKd 3.1 to 4
# Settings: plain residues with an end cap or a label only (N-terminal biotin on a linker: ado-ado)
row,Binder,pKd
1,"GCQGETEDVL [PTH2R, P49190]",below the threshold
2,"ANGLMQTSKL [SSTR5, P35346]",below the threshold

# Biological target: AHNAK1, Q09666
# Sequence (Q09666 4-100): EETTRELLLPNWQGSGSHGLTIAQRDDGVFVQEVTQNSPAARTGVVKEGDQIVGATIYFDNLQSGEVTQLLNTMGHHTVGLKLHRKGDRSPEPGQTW
# Test: holdup assay
# Parameters: key: below the threshold = too weak to quantify, mostly under pKd 3.1 to 4
# Settings: plain residues with an end cap or a label only (N-terminal biotin on a linker: ado-ado)
row,Binder,pKd
1,"GCQGETEDVL [PTH2R, P49190]",below the threshold
2,"ANGLMQTSKL [SSTR5, P35346]",below the threshold

# Biological target: GOPC, Q9HD26
# Test: holdup assay
# Parameters: key: below the threshold = too weak to quantify, mostly under pKd 3.1 to 4
# Settings: plain residues with an end cap or a label only (N-terminal biotin on a linker: ado-ado)
row,Binder,pKd
1,"GCQGETEDVL [PTH2R, P49190]",below the threshold
2,"ANGLMQTSKL [SSTR5, P35346]",4.93

# Biological target: T4, SHANK1, Q9Y566
# T4 sequence (Q9Y566 658-767, limits assumed, looked up): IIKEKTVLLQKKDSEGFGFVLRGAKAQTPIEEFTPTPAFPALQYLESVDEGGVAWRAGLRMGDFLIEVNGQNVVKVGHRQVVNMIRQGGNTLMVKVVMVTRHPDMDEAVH
# Test: holdup assay
# Parameters: key: below the threshold = too weak to quantify, mostly under pKd 3.1 to 4
# Settings: plain residues with an end cap or a label only (N-terminal biotin on a linker: ado-ado)
row,Binder,pKd
1,"GCQGETEDVL [PTH2R, P49190]",below the threshold
2,"ANGLMQTSKL [SSTR5, P35346]",4.65

# Biological target: Inadl_8, Q8NI35
# Sequence (Q8NI35 1425-1530): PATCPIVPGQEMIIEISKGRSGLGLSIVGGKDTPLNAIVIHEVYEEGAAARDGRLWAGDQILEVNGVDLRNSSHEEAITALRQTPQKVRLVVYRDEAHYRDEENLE
# Test: holdup assay
# Parameters: key: below the threshold = too weak to quantify, mostly under pKd 3.1 to 4
# Settings: plain residues with an end cap or a label only (N-terminal biotin on a linker: ado-ado)
row,Binder,pKd
1,"GCQGETEDVL [PTH2R, P49190]",below the threshold
2,"ANGLMQTSKL [SSTR5, P35346]",below the threshold

# Biological target: T5, SNTG1, Q9NSN8
# T5 sequence (Q9NSN8 52-150, limits assumed, looked up): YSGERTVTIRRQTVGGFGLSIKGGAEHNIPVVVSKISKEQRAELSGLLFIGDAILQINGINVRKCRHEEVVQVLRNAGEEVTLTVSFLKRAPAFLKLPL
# Test: holdup assay
# Parameters: key: below the threshold = too weak to quantify, mostly under pKd 3.1 to 4
# Settings: plain residues with an end cap or a label only (N-terminal biotin on a linker: ado-ado)
row,Binder,pKd
1,"GCQGETEDVL [PTH2R, P49190]",below the threshold
2,"ANGLMQTSKL [SSTR5, P35346]",below the threshold

# Biological target: T6, TJP3_3, O95049
# T6 sequence (O95049 375-456, limits assumed, looked up): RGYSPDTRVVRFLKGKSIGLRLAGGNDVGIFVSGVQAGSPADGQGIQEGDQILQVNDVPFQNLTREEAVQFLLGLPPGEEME
# Test: holdup assay
# Parameters: key: below the threshold = too weak to quantify, mostly under pKd 3.1 to 4
# Settings: plain residues with an end cap or a label only (N-terminal biotin on a linker: ado-ado)
row,Binder,pKd
1,"GCQGETEDVL [PTH2R, P49190]",below the threshold
2,"ANGLMQTSKL [SSTR5, P35346]",below the threshold

# Biological target: T7, SNTB1, Q13884
# T7 sequence (Q13884 107-205, limits assumed, looked up): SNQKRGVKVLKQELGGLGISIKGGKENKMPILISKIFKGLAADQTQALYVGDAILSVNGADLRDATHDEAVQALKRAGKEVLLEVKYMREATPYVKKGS
# Test: holdup assay
# Parameters: key: below the threshold = too weak to quantify, mostly under pKd 3.1 to 4
# Settings: plain residues with an end cap or a label only (N-terminal biotin on a linker: ado-ado)
row,Binder,pKd
1,"GCQGETEDVL [PTH2R, P49190]",below the threshold
2,"ANGLMQTSKL [SSTR5, P35346]",below the threshold

# Biological target: GRID2IP_2, A4D2P6
# Sequence (A4D2P6 272-370): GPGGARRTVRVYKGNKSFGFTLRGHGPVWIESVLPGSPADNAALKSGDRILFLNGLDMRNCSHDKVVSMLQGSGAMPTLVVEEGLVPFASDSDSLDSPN
# Test: holdup assay
# Parameters: key: below the threshold = too weak to quantify, mostly under pKd 3.1 to 4
# Settings: plain residues with an end cap or a label only (N-terminal biotin on a linker: ado-ado)
row,Binder,pKd
1,"GCQGETEDVL [PTH2R, P49190]",below the threshold
2,"ANGLMQTSKL [SSTR5, P35346]",4.48

# Biological target: MAGI1_1, Q96QZ7
# Sequence (Q96QZ7 1-106): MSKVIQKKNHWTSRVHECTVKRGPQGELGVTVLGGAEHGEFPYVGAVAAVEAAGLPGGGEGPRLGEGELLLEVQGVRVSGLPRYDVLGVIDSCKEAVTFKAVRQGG
# Test: holdup assay
# Parameters: key: below the threshold = too weak to quantify, mostly under pKd 3.1 to 4
# Settings: plain residues with an end cap or a label only (N-terminal biotin on a linker: ado-ado)
row,Binder,pKd
1,"GCQGETEDVL [PTH2R, P49190]",below the threshold
2,"ANGLMQTSKL [SSTR5, P35346]",below the threshold

# Biological target: T8, APBA3_1, O96018
# T8 sequence (O96018 389-490, limits assumed, looked up): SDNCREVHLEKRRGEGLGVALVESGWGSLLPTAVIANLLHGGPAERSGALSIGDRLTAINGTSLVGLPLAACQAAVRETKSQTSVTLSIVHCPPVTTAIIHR
# Test: holdup assay
# Parameters: key: below the threshold = too weak to quantify, mostly under pKd 3.1 to 4
# Settings: plain residues with an end cap or a label only (N-terminal biotin on a linker: ado-ado)
row,Binder,pKd
1,"GCQGETEDVL [PTH2R, P49190]",below the threshold
2,"ANGLMQTSKL [SSTR5, P35346]",below the threshold

# Biological target: T9, MPDZ_5, O75970
# T9 sequence (O75970 695-796, limits assumed, looked up): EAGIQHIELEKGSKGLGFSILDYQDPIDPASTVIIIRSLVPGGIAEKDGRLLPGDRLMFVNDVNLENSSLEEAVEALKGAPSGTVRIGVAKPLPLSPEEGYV
# Test: holdup assay
# Parameters: key: below the threshold = too weak to quantify, mostly under pKd 3.1 to 4
# Settings: plain residues with an end cap or a label only (N-terminal biotin on a linker: ado-ado)
row,Binder,pKd
1,"GCQGETEDVL [PTH2R, P49190]",below the threshold
2,"ANGLMQTSKL [SSTR5, P35346]",below the threshold

# Biological target: GRIP2_7, Q9C0E4
# Sequence (Q9C0E4 934-1023): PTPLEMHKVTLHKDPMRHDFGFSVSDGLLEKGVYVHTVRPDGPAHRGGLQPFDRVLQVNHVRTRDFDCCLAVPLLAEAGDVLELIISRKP
# Test: holdup assay
# Parameters: key: below the threshold = too weak to quantify, mostly under pKd 3.1 to 4
# Settings: plain residues with an end cap or a label only (N-terminal biotin on a linker: ado-ado)
row,Binder,pKd
1,"GCQGETEDVL [PTH2R, P49190]",below the threshold
2,"ANGLMQTSKL [SSTR5, P35346]",below the threshold

# Biological target: PARD3_3, Q8TEW0
# Sequence (Q8TEW0 582-685): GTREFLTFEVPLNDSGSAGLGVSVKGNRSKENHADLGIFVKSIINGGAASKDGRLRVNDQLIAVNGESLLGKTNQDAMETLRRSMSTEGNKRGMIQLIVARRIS
# Test: holdup assay
# Parameters: key: below the threshold = too weak to quantify, mostly under pKd 3.1 to 4
# Settings: plain residues with an end cap or a label only (N-terminal biotin on a linker: ado-ado)
row,Binder,pKd
1,"GCQGETEDVL [PTH2R, P49190]",4.32
2,"ANGLMQTSKL [SSTR5, P35346]",below the threshold

# Biological target: GRIP2_6, Q9C0E4
# Sequence (Q9C0E4 648-740): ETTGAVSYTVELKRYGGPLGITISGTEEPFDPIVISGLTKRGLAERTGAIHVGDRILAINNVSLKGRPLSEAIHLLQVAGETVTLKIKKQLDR
# Test: holdup assay
# Parameters: key: below the threshold = too weak to quantify, mostly under pKd 3.1 to 4
# Settings: plain residues with an end cap or a label only (N-terminal biotin on a linker: ado-ado)
row,Binder,pKd
1,"GCQGETEDVL [PTH2R, P49190]",below the threshold
2,"ANGLMQTSKL [SSTR5, P35346]",below the threshold

# Biological target: T10, APBA1_1, Q02410
# T10 sequence (Q02410 651-752, limits assumed, looked up): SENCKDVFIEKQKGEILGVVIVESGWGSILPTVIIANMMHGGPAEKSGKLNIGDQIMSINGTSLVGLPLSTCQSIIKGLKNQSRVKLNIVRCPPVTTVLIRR
# Test: holdup assay
# Parameters: key: below the threshold = too weak to quantify, mostly under pKd 3.1 to 4
# Settings: plain residues with an end cap or a label only (N-terminal biotin on a linker: ado-ado)
row,Binder,pKd
1,"GCQGETEDVL [PTH2R, P49190]",below the threshold
2,"ANGLMQTSKL [SSTR5, P35346]",below the threshold

# Biological target: T11, GRIP1_2, Q9Y3R0
# T11 sequence (Q9Y3R0 145-248, limits assumed, looked up): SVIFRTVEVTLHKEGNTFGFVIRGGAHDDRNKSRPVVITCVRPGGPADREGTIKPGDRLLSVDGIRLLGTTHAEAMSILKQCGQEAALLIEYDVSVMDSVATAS
# Test: holdup assay
# Parameters: key: below the threshold = too weak to quantify, mostly under pKd 3.1 to 4
# Settings: plain residues with an end cap or a label only (N-terminal biotin on a linker: ado-ado)
row,Binder,pKd
1,"GCQGETEDVL [PTH2R, P49190]",below the threshold
2,"ANGLMQTSKL [SSTR5, P35346]",below the threshold

# Biological target: DLG2_3, Q15700
# Test: holdup assay
# Parameters: key: below the threshold = too weak to quantify, mostly under pKd 3.1 to 4
# Settings: plain residues with an end cap or a label only (N-terminal biotin on a linker: ado-ado)
row,Binder,pKd
1,"GCQGETEDVL [PTH2R, P49190]",below the threshold
2,"ANGLMQTSKL [SSTR5, P35346]",3.48

# Biological target: T12, SNTG2, Q9NY99
# T12 sequence (Q9NY99 68-166, limits assumed, looked up): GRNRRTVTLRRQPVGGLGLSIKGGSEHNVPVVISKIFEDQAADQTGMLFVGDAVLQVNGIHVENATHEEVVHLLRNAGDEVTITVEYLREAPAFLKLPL
# Test: holdup assay
# Parameters: key: below the threshold = too weak to quantify, mostly under pKd 3.1 to 4
# Settings: plain residues with an end cap or a label only (N-terminal biotin on a linker: ado-ado)
row,Binder,pKd
1,"GCQGETEDVL [PTH2R, P49190]",below the threshold
2,"ANGLMQTSKL [SSTR5, P35346]",3.62
